Test results from the supplement of paper PMC9170038.

System: MS2 coat protein
Assay: apparent KD of MS2 coat protein; higher = weaker reporter binding
Settings: Eterna round: R107
Experimental: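 RNA-MaP round R107: designed RNA switches with theophylline, tryptophan, arginine or FMN aptamers are transcribed on-chip within common flanks. They are titrated with SNAP-549-labelled MS2 coat protein in RNA-MaP buffer (100 mM Tris pH 7.5, 80 mM KCl, 4 mM MgCl2), without ligand or with the indicated ligand. Median apparent KD per design.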

[1] = input ligand: theophylline 20 uM
[2] = input ligand: theophylline 2 mM
[3] = input ligand: tryptophan 2.4 mM

| Sequence | apparent KD of MS2 coat protein (input ligand: arginine 13.2 mM) [nM] | apparent KD of MS2 coat protein [1] [nM] | apparent KD of MS2 coat protein [2] [nM] | apparent KD of MS2 coat protein (input ligand: none) [nM] | apparent KD of MS2 coat protein [3] [nM] |
| --- | --- | --- | --- | --- | --- |
| ACAUCUUGUACGGCCGCCACUAACAGAUUCAGCGUCGGAGCCAACUACAUGAGGAUCACCCAUGUUAGGACCGGGUACUGUCCAC [theeternabot_exclusion_MS2_Trp_B_47] | 15.8 | 20.7 | 21 | – | – |
| ACAUGACAACAUGAGGAUCACCCAUGUCAUCGAGGACCGGUACGGCCGCCACUCGGUCAAUAUGAUACUUGUCAUGAACAUGAGG [Exclusion Tryptophan A 2] | 19 | 25.7 | 21.3 | – | – |
| ACAUGAGGACCGGAUACCAGCCACACAACAUGAGGAUCACCCAUGUCCCAUGUAUGAGGAGGCCCUUGGCAGCCGACAUACAUGA [Exclusion - Theophylline B #1] | 48.2 | 157 | 398 | 77.3 | 78.1 |
| ACAUGAGGAUCACCCAUGUAAUAGCGAGAAGGAGCGCGUAAGGACGCAGGUAGGUCGCUCGUGGUCCGGCCGCAAGGCCGGACCA [#1 Same State - Arginine A Attempt #10 (HarryS)] | 11.1 | 18.6 | 12 | 9.24 | 13.2 |
| ACAUGAGGAUCACCCAUGUACAUCACCCGACGAGGACCGGUACGGCCGCCACUCGGGUAUAUAUAUACAUCGGGUGAUUUUGCAU [#21 Tryptophan A Same State] | 27.4 | 108 | 79.5 | 20.9 | 26.5 |
| ACAUGAGGAUCACCCAUGUACAUGAGGGAAGGAGCGGUACAUGUGCCAGGUAGGUCGCCCAACAGCAUCAGCCAUGUACAACGGA [xxbmullin] | 29 | 87.4 | 69.5 | 56.8 | 52.3 |
| ACAUGAGGAUCACCCAUGUAUUGAGCCGAAGGAGCGGCAGGUAUGCCAGGUAGGUCGCGGUUAGAGUAGAUUGAUGUUCUUUUGU [Exclusion - Arginine A / B] | 12.3 | 14.8 | 16.3 | 12.7 | 12.4 |
| ACAUGAGGAUCACCCAUGUCACGGCACGAUACCAGCUGAUCCGGUGGCCCUUGGCAGCGUGACGUUUGGUCCCGCGGAUCACACG [semullin] | 40 | 101 | – | – | 66.9 |
| ACAUGAGGAUCACCCAUGUGAAGGCACGAUACCAGCUGAUCCCGUGGCCCUUGGCAGCGUCCGGUGUGGUCCGGCGGAUGGGACG [xwxmullin] | 19.1 | 23.3 | 30.9 | 25 | 26.4 |
| ACAUGAGGAUCACCCAUGUGCCGUCUUGAUACCAGACCCGAAGUAGUCCCUUGGCAGCAACUACGUGACGGUCGCGCAUGUGUAG [kaomullin] | 16.3 | 30.3 | – | – | 17.7 |
| ACAUGAGGAUCACCCAUGUUAAACACAGAAGGAGCGUGAAGGAACACAGGUAGGUCGCUGUACUUAUUGAGUAUUCACUCGAUAC [JR_Nu_SSArginiA_Sub028] | 14.9 | 16.5 | 12.8 | 12.5 | 13.3 |
| ACCAGGGUCUGAAGGAGCGCGAUUACAUGAGGAUCACCCAUGUGAAAUGGUAGAUGAUACUCGCAGGUAGGUCGCAGUACUUGGA [Same State Arginine B GF 14] | 53.3 | 164 | 234 | 107 | 215 |
| ACCGCAGGUCCUGAUACCAGAGACAUGAGGAUCACCCAUGUCCGAUCGUCCUGCCUCAGGCUCCCUUGGCAGCAGGGCUUGUCCU [Exclusion Theophylline B GF8] | 14.1 | 20.6 | – | – | 14.8 |
| ACCUGUACGAAAAGUGCAGGACAUGGUAAACGAGGACCGGUACGGCCGCCACUCGAAGAAAACAAGUGGAUCACCCUUGUCCAUG [TrypAS 4 #AlternativeMS2 #Zipper #StaticStem] | 292 | 641 | 2090 | 622 | 1350 |
| ACGACAUGAGGAUCACCCAUGUAAGGUGAUACCAGACGAAGUAAUGUCCCUUGGCAGCACAAGCAUAGUUGCGAUUAUUGUACGA [JR_SSTheophyA_Sub006] | 124 | 574 | – | – | 442 |
| ACGAUACGACAUGAGGAUCACCCAUGUGAUACCAGCGUGGAAACACGCCCUUGGCAGCACAAAUACUCCAAUAACGUAUCGAAAA [MAT - Exclusion Theophlline A - Mod of Eli - D8] | 139 | 211 | – | – | 260 |
